Experimental data from PMC8755082, “Recognition of G-quadruplex RNA by a crucial RNA methyltransferase component, METTL14”.

Columns and labels:
[1] = target: T1, METTL3 MTD (MTD3);METTL14 MTD-RGG (MTD14-RGG) (human?;human?, UniProt Q86U44;Q9HCE5 255-580;110-456, |); experiment: EMSA; K+ buffer; EMSA: 2.5 nM RNA, 10 mM potassium (or lithium) phosphate pH 7.5, 25 uM ZnCl2, 10 uM SAM, 0.5 mM DTT, 0.005% Tween 20, 2.5% ficoll, 50 ng/uL yeast tRNA, 4 C, 1 h; GST-RGG: 25 mM Tris-HCl pH 7.5 with 10 mM KCl or LiCl instead of phosphate; conditions: protein: recombinant;recombinant, tags: Strep-tag II;His6, copies: 1;1, label: 5' FAM
T1 sequence (Q86U44 255-580, chain 1 of 2): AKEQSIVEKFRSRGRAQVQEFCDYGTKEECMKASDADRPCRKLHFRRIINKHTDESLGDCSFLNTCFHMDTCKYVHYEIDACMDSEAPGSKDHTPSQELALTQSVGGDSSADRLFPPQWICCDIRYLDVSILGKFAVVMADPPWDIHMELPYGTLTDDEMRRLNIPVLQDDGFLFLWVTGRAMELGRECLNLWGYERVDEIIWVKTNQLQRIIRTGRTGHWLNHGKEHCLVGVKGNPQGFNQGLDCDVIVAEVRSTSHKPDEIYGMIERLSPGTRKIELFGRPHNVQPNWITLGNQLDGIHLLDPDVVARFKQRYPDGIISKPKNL
T1 sequence (Q9HCE5 110-456, chain 2 of 2): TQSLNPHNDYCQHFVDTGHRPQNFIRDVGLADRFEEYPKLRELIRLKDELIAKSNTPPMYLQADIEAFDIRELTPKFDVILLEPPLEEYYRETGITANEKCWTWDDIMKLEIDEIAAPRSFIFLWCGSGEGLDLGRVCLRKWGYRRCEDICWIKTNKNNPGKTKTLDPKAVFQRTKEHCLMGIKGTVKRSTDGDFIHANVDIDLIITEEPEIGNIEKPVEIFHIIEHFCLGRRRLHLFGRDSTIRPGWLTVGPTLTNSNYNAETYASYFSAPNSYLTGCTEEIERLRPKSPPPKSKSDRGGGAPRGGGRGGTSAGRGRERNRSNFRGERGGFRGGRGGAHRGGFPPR

[2] = target: T1, METTL3 MTD (MTD3);METTL14 MTD-RGG …; experiment: EMSA; Li+ buffer; EMSA: 2.5 nM RNA, 10 mM potassium (or lithium) phosphate pH 7.5, 25 uM ZnCl2, 10 uM SAM, 0.5 mM DTT, 0.005% Tween 20, 2.5% ficoll, 50 ng/uL yeast tRNA, 4 C, 1 h; GST-RGG: 25 mM Tris-HCl pH 7.5 with 10 mM KCl or LiCl instead of phosphate; conditions: protein: recombinant;recombinant; tags: Strep-tag II;His6; copies: 1;1; label: 5' FAM; no G4
[3] = target: METTL3 MTD (MTD3);METTL14 MTD without RGG (MTD14) (human?;human?, UniProt Q86U44;Q9HCE5 255-580;110-413, |); experiment: EMSA; K+ buffer; EMSA: 2.5 nM RNA, 10 mM potassium (or lithium) phosphate pH 7.5, 25 uM ZnCl2, 10 uM SAM, 0.5 mM DTT, 0.005% Tween 20, 2.5% ficoll, 50 ng/uL yeast tRNA, 4 C, 1 h; GST-RGG: 25 mM Tris-HCl pH 7.5 with 10 mM KCl or LiCl instead of phosphate; conditions: protein: recombinant;recombinant; tags: Strep-tag II;His6; copies: 1;1; label: 5' FAM; intramolecular parallel G4 in K+; unfolded in Li+
METTL3 MTD (MTD3);METTL14 MTD without RGG (MTD14), sequence (Q86U44 255-580, chain 1 of 2): as the sequence (Q86U44 255-580, chain 1 of 2) above
METTL3 MTD (MTD3);METTL14 MTD without RGG (MTD14), sequence (Q9HCE5 110-413, chain 2 of 2): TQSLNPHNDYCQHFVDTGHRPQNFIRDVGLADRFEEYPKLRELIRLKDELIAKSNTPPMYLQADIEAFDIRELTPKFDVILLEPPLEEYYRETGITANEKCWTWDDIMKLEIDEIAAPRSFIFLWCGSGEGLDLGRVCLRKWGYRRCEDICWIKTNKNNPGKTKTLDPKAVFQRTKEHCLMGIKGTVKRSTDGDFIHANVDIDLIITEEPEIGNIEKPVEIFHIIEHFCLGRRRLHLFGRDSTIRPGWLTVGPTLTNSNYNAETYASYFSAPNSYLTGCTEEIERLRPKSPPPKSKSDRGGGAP

With UGAGUGUGAGUGUUUUAGACAUUUUUGAGUGUGAGUG (ssRNA) [Non-G4 RNA1] as the binder, how does the Kd ([1]; no G4) read?
Its Kd is 209 ± 94 nM.

And the Kd [2]?
The Kd was 149 ± 11 nM.

With UUAGGGUUAGGGUUAGGGUUAGGGAGACAUUUUUUUUUUUU (structured_RNA) [G4 RNA4] as the binder, how does the Kd ([1]; intramolecular G4 in K+, loops 3-3-3) read?
The Kd was 35 ± 9 nM.

With UUAGGGUUAGGGUUAGGGUUUUAGACAUUUUUUAGGG (structured_RNA) [G4 RNA2] as the binder, how does the Kd ([1]; intramolecular G4 in K+, loops 3-3-16) read?
The Kd was 36 ± 11 nM.

UUUUUUUUUUUUUUAGGGUUAGGGAGACAUUAGGGUUAGGG (structured_RNA) [G4 RNA3] was tested. Which Kd ([1]; intramolecular G4 in K+, loops 3-8-3) did it give?
The Kd was 29 ± 13 nM.

What does the source list for UUAGGGUUAGGGUUUUAGACAUUUUUUAGGGUUAGGG (structured_RNA) [G4 RNA1]?
Kd [3]: 419 ± 109 nM; Kd ([1]; intramolecular parallel G4 in K+, unfolded in Li+): 35 ± 12 nM

Which Kd ([1]; no G4) does the source give for UUUUUUUUUUUUUGAGUGUGAGUGAGACAUGAGUGUGAGUG (ssRNA) [Non-G4 RNA2] here?
The Kd was 309 ± 85 nM.
